{"source": "patent US20230235052A1", "about": "(GRACELL BIOTECHNOLOGIES SHANGHAI, published 2023)", "key": {"human CD19 antigen": {"biological_target": "T1, human CD19 antigen (human, UniProt P15391 20-291, limits assumed)", "T1 sequence (looked up)": "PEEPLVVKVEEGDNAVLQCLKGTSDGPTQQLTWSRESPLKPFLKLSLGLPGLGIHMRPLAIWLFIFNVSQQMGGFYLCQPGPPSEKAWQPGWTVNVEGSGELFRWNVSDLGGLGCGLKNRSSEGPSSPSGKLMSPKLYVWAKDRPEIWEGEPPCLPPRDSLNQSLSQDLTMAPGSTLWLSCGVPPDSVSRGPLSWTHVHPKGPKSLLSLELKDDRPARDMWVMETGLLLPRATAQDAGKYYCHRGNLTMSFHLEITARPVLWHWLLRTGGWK", "experiment": "SPR (Biacore), antibody captured via Fc", "method": "Part of the antibodies in Example 1 were tested for affinity, and the composition of the heavy chain variable regions and the light chain variable regions of the antibodies to be tested are shown in Table 2.\nHEK293 cells were used to express the antibodies to be tested and Protein A was used for purification. The surface plasmon resonance technique (SPR) was used for determination, and the Fc capture method was used for antibody fixation."}, "[1]": {"biological_target": "T2, CD19 on CD19-positive target cells SU-DHL-10 and Raji (human, UniProt P15391 20-556)", "T2 construct": "whole, on cells; also called cell surface antigens", "T2 sequence (looked up)": "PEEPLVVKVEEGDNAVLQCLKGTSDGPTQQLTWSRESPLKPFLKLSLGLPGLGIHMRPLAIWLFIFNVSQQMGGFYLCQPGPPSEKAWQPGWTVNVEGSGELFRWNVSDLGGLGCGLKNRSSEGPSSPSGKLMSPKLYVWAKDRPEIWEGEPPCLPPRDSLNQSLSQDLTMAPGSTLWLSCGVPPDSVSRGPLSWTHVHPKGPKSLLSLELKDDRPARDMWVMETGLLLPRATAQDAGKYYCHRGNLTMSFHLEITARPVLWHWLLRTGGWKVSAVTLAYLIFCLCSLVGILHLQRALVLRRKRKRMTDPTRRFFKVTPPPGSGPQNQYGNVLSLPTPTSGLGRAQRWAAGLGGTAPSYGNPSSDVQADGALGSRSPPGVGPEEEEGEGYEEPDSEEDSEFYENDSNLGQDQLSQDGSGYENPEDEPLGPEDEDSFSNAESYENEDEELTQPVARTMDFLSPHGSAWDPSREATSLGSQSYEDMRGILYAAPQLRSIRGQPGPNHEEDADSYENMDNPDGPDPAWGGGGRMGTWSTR", "experiment": "flow cytometry on CD19-positive Raji cells, antibody titrated, fluorescent anti-Fc secondary antibody, percent positive cells (panel 'scFv binding to Raji')", "method": "(§1) Part of the antibodies in Example 1 were detected for surface binding to CD19-positive target cells SU-DHL-10 and Raji.\n(§2) CD19-positive SU-DHL-10 or Raji cell lines were used, and humanized antibodies at different concentrations were used to bind the target cells. After binding, secondary antibodies (fluorescent labeled anti-Fc antibodies) were used for staining. After cleaning the residual antibodies, the positive rate was analyzed by flow cytometry to draw the binding curve of antibodies binding to cell surface antigens."}, "[2]": {"biological_target": "T2, CD19 on CD19-positive target cells …", "experiment": "flow cytometry on CD19-positive SU-DHL-10 cells, antibody titrated, fluorescent anti-Fc secondary antibody, percent positive cells (panel 'scFv binding to SU-DHL-10')", "method": "as §1, §2"}}, "data": [{"binder": "humanized CD19 antibody VH7 + VL6 (antibody, V domains shown) VH: QVKLQESGPGLVKPSETLSLTCTVSGVSLPDYGVSWIRQPPGKGLEWLGVIWGSETTYYNSALKSRLTISKDTSKNQFSLKLSSVTAADTAVYYCAKHYYYGGSYAMDYWGQGTLVTVSS VL: DIQMTQSPSSLSASVGDRVTITCRASQDISKYLNWYQQKPGGAVKLLIYHTSRLHSGVPSRFSGSGSGTDYTFTISSLQPEDIATYFCQQGNTLPYTFGGGTKLEIK", "values": [{"measurement": "Kd", "setting": "human CD19 antigen", "result": 4.57, "unit": "nM"}, {"measurement": "koff", "setting": "human CD19 antigen", "result": 0.000592, "unit": "s⁻¹"}, {"measurement": "kon", "setting": "human CD19 antigen", "result": 130000, "unit": "M⁻¹ s⁻¹"}, {"measurement": "EC50 (read off the curve)", "setting": "[1]", "result": "~0.03", "unit": "µg/mL"}, {"measurement": "EC50 (read off the curve)", "setting": "[2]", "result": "~0.01", "unit": "µg/mL"}]}, {"binder": "humanized CD19 antibody VH10 + VL5 (antibody, V domains shown) VH: QVKLQESGPGLVKPSETLSLTCTVSGVSLPDYGVSWIRQPPGKGLEWLGVIWGSETTYYNSALKSRLTISKDTSKSQVFLKLSSVTAADTAVYYCAKHYYYGGSYAMDYWGQGTLVTVSS VL: DIQMTQSPSSLSASVGDRVTISCRASQDISKYLNWYQQKPGKAPKLLIYHTSRLHSGVPSRFSGSGSGTDYTFTISSLQPEDIATYFCQQGNTLPYTFGGGTKLEIK", "values": [{"measurement": "Kd", "setting": "human CD19 antigen", "result": 1.55, "unit": "nM"}, {"measurement": "koff", "setting": "human CD19 antigen", "result": 0.000182, "unit": "s⁻¹"}, {"measurement": "kon", "setting": "human CD19 antigen", "result": 118000, "unit": "M⁻¹ s⁻¹"}, {"measurement": "EC50 (read off the curve)", "setting": "[1]", "result": "~0.03", "unit": "µg/mL"}]}, {"binder": "humanized CD19 antibody VH8 + VL6 (antibody, V domains shown) VH: QVKLQESGPGLVKPSETLSLTCTVSGVSLPDYGVSWIRQPPGKGLEWIGVIWGSETTYYNSALKSRVTISKDTSKSQVFLKLSSVTAADTAVYYCAKHYYYGGSYAMDYWGQGTLVTVSS VL: DIQMTQSPSSLSASVGDRVTITCRASQDISKYLNWYQQKPGGAVKLLIYHTSRLHSGVPSRFSGSGSGTDYTFTISSLQPEDIATYFCQQGNTLPYTFGGGTKLEIK", "values": [{"measurement": "Kd", "setting": "human CD19 antigen", "result": 3.26, "unit": "nM"}, {"measurement": "koff", "setting": "human CD19 antigen", "result": 0.000383, "unit": "s⁻¹"}, {"measurement": "kon", "setting": "human CD19 antigen", "result": 117000, "unit": "M⁻¹ s⁻¹"}, {"measurement": "EC50 (read off the curve)", "setting": "[1]", "result": "~0.04", "unit": "µg/mL"}, {"measurement": "EC50 (read off the curve)", "setting": "[2]", "result": "~0.01", "unit": "µg/mL"}]}, {"binder": "humanized CD19 antibody VH8 + VL5 (antibody, V domains shown) VH: QVKLQESGPGLVKPSETLSLTCTVSGVSLPDYGVSWIRQPPGKGLEWIGVIWGSETTYYNSALKSRVTISKDTSKSQVFLKLSSVTAADTAVYYCAKHYYYGGSYAMDYWGQGTLVTVSS VL: DIQMTQSPSSLSASVGDRVTISCRASQDISKYLNWYQQKPGKAPKLLIYHTSRLHSGVPSRFSGSGSGTDYTFTISSLQPEDIATYFCQQGNTLPYTFGGGTKLEIK", "values": [{"measurement": "Kd", "setting": "human CD19 antigen", "result": 3.87, "unit": "nM"}, {"measurement": "koff", "setting": "human CD19 antigen", "result": 0.000602, "unit": "s⁻¹"}, {"measurement": "kon", "setting": "human CD19 antigen", "result": 155000, "unit": "M⁻¹ s⁻¹"}, {"measurement": "EC50 (read off the curve)", "setting": "[1]", "result": "~0.03", "unit": "µg/mL"}, {"measurement": "EC50 (read off the curve)", "setting": "[2]", "result": "~0.01", "unit": "µg/mL"}]}, {"binder": "humanized CD19 antibody VH9 + VL5 (antibody, V domains shown, also called H9L5) VH: QVQLQESGPGLVKPSETLSLTCTVSGVSLPDYGVSWIRQPPGKGLEWLGVIWGSETTYYNSALKSRLTISKDTSKSQVSLKLSSVTAADTAVYYCAKHYYYGGSYAMDYWGQGTLVTVSS VL: DIQMTQSPSSLSASVGDRVTISCRASQDISKYLNWYQQKPGKAPKLLIYHTSRLHSGVPSRFSGSGSGTDYTFTISSLQPEDIATYFCQQGNTLPYTFGGGTKLEIK", "values": [{"measurement": "Kd", "setting": "human CD19 antigen", "result": 1.7, "unit": "nM"}, {"measurement": "koff", "setting": "human CD19 antigen", "result": 0.000186, "unit": "s⁻¹"}, {"measurement": "kon", "setting": "human CD19 antigen", "result": 109000, "unit": "M⁻¹ s⁻¹"}]}]}
